In this test the target is M2e4x-PR8HA fusion protein (four tandem repeats of M2e fused to A/PR8 HA) on recombinant M2e4x-PR8HA influenza virus (influenza A/PR/8/34 (H1N1)) (UniProt P03452). In words: ELISA on serially coated inactivated virus. A general note: In an ELISA, binding on a coated surface is turned into a signal by an enzyme label.

For “Influenza A virus M2 monoclonal antibody 14C2 (Abcam Inc., Cambridge, Mass.)”, the coating concentration at which reactivity was detected (ng/100 µl/well) is 20 and the fold M2e reactivity relative to parental wild type A/PR8 virus was determined as 250 fold.

For the origin of these results see patent publication US20150273048A1.
